Publication PMC4867596

B1: endogenous Pex19 (natural protein)
chain: MAAAEEGCSVGAEADRELEELLESALDDFDKAKPSPAPPSTTTAPDASGPQKRSPGDTAKDALFASQEKFFQELFDSELASQATAEFEKAMKELAEEEPHLVEQFQKLSEAAGRVGSDMTSQQEFTSCLKETLSGLAKNATDLQNSSMSEEELTKAMEGLGMDEGDGEGNILPIMQSIMQNLLSKDVLYPSLKEITEKYPEWLQSHRESLPPEQFEKYQEQHSVMCKICEQFEAETPTDSETTQKARFEMVLDLMQQLQDLGHPPKELAGEMPPGLNFDLDALNLSGPPGASGEQCLIM

Legend:
Pex19-YFP [1] = biological target: Pex19-YFP (UniProt P40855); assay: co-IP; HFF cells transfected with vMIA-myc and Pex19-YFP for 24 h; precipitated with GFP antibody overnight at 4 °C and Dynabeads Protein G; blot for myc and GFP; control: cells with vMIA-myc alone
[2] = biological target: peroxisomal MAVS of Mefs MAVS-Pex cells (UniProt Q7Z434); assay: co-IP; Mefs MAVS-Pex cells transfected with vMIA-myc or myc-Miro1 for 24 h; precipitated with an antibody against MAVS and Dynabeads Protein G; blot for MAVS and myc; controls: non-transfected cells, Mefs MAVS-KO cells with vMIA-myc
Pex19-YFP [3] = biological target: Pex19-YFP (UniProt P40855); assay: co-IP; HepG2 cells co-transfected with Pex19-YFP and vMIA-myc for 24 h; Pex19-YFP precipitated with GFP-Trap_M beads, 2 h at 4 °C; lysis in 10 mM Tris-HCl pH 7.5, 150 mM NaCl, 0.5 mM EDTA, 0.5% NP-40; blot for myc, Pex19 and GFP; control: cells with GFP and vMIA-myc
[4] = biological target: vMIA-myc (HCMV mitochondria-localized inhibitor of apoptosis, myc-tagged) (human cytomegalovirus); assay: co-IP; HFF cells transfected with vMIA-myc for 24 h; precipitated with myc antibody (2 h, 4 °C) and Protein G magnetic beads; blot for myc and endogenous Pex19; control: non-transfected cells
Sequence of vMIA-myc (HCMV mitochondria-localized inhibitor of apoptosis, myc-tagged) (human cytomegalovirus) (P16778 23-487): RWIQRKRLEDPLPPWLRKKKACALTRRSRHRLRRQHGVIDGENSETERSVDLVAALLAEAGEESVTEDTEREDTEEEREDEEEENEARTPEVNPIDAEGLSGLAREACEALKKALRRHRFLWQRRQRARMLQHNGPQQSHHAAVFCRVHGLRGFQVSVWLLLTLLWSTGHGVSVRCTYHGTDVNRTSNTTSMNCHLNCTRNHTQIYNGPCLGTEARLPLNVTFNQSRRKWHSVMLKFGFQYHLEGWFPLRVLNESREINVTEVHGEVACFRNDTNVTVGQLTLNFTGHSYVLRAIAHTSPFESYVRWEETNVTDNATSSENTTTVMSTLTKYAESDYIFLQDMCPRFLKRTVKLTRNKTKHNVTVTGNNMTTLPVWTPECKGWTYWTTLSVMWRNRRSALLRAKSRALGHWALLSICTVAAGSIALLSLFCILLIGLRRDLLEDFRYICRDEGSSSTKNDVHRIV

Sequence of UniProt Q7Z434 (Q7Z434 whole entry): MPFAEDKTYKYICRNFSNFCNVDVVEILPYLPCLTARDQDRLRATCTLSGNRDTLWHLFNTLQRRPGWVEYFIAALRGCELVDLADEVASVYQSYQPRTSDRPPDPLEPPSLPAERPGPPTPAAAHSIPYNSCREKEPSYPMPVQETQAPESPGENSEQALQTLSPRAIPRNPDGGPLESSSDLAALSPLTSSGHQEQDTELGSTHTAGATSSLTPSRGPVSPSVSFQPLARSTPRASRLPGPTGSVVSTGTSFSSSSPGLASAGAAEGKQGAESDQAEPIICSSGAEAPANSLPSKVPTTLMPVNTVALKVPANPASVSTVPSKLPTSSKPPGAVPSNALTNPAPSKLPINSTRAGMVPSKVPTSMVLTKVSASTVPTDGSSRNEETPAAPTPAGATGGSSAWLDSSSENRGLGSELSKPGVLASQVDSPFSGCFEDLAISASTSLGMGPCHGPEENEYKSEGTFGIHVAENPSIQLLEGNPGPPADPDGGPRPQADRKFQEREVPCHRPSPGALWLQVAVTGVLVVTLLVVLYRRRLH

Molecule	fold increase of the IP band over the control (Pex19-YFP [1])	fold increase of the IP band over the control [2]	fold increase of the IP band over the control (Pex19-YFP [3])	fold increase of the IP band over the control [4]
vMIA-myc (HCMV mitochondria-localized inhibitor of apoptosis, myc-tagged) (natural protein)	5 fold	18 fold	7 fold	–
B1	–	–	–	3 fold
